The labels stand for the following.
B2: HA-tagged full length NS5A (other)
chain: SGSWLRDVWDWVCTILTDFKNWLTSKLFPKLPGLPFISCQKGYKGVWAGTGIMTTRCPCGANISGNVRLGSMRITGPKTCMNTWQGTFPINCYTEGQCAPKPPTNYKTAIWRVAASEYAEVTQHGSYSYVTGLTTDNLKIPCQLPSPEFFSWVDGVQIHRFAPTPKPFFRDEVSFCVGLNSYAVGSQLPCEPEPDADVLRSMLTDPPHITAETAARRLARGSPPSEASSSVSQLSAPSLRATCTTHSNTYDVDMVDANLLMEGGVAQTEPESRVPVLDFLEPMAEEESDLEPSIPSECMLPRSGFPRALPAWARPDYNPPLVESWRRPDYQPPTVAGCALPPPKKAPTPPPRRRRTVGLSESTISEALQQLAIKTFGQPPSSGDAGSSTGAGAAESGGPTSPGEPAPSETGSASSMPPLEGEPGDPDLESDQVELQPPPQGGGVAPGSGSGSWSTCSEEDDTTVCC
notes: also called HA-tagged NS5A; not shown: HA tag from vector pRK-7 HA

Assay [1] concerns the target T1, HA-tagged CD2AP (pRK-HA-CD2AP), human, full length (human, UniProt Q9Y5K6 1-639).
T1 construct: Over-expressed in HEK 293T cells and tested in cell lysate by co-IP; also called CD2 associated protein; not shown: HA tag from vector pRK-7 HA
Kind of assay: co-IP with anti-flag antibody from HEK 293T cells over-expressing both, blot with anti-HA.

Assay [2] addresses T2, flag-tagged truncated CD2AP 60-639 aa (human, UniProt Q9Y5K6 60-639).
T2 construct: No first SH3 domain, all other CD2AP domains kept; also called CD2AP lacking the first SH3 domain; not shown: Flag tag
Briefly: co-IP with anti-flag antibody, HEK 293T cells, blot with anti-HA.

The target in assay [3] is T3, flag-tagged CD2AP 1-639 aa (full length) (human, UniProt Q9Y5K6 1-639).
T3 construct: also called Full length CD2AP; not shown: Flag tag
The assay is described as above.

In assay [4] the target is T4, CD2AP, endogenous, in Huh7.5.1 cells (human, UniProt Q9Y5K6 1-639).
T4 construct: Endogenous protein of human hepatoma Huh7.5.1 cells, in cell lysate
Kind of assay: endogenous co-IP, both directions, Huh7.5.1 cells infected with HCV JFH1.

The target of assay [5] is B2. Briefly: co-IP with anti-flag antibody, HEK 293T cells, blot with anti-HA.

T2 sequence (Q9Y5K6 60-639): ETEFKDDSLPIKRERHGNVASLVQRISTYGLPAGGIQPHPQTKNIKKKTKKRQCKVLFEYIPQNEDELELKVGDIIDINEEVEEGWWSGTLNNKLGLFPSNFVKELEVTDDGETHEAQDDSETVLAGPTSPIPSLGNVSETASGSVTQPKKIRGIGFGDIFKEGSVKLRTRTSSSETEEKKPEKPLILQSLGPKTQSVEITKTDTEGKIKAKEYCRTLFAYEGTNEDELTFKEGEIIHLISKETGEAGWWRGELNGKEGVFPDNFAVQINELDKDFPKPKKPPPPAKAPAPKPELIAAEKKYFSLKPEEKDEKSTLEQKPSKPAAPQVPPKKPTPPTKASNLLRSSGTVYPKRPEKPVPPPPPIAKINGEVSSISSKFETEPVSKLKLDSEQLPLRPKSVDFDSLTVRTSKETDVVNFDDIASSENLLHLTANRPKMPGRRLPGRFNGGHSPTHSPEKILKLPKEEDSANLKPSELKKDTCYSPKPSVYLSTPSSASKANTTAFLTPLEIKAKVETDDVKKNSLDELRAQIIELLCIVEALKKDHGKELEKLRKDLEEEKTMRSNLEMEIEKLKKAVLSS

B1: Flag-tagged NS5A derived from HCV genotype 2a strain JFH1 (pRK-Flag-NS5A), full length (other)
chain: SGSWLRDVWDWVCTILTDFKNWLTSKLFPKLPGLPFISCQKGYKGVWAGTGIMTTRCPCGANISGNVRLGSMRITGPKTCMNTWQGTFPINCYTEGQCAPKPPTNYKTAIWRVAASEYAEVTQHGSYSYVTGLTTDNLKIPCQLPSPEFFSWVDGVQIHRFAPTPKPFFRDEVSFCVGLNSYAVGSQLPCEPEPDADVLRSMLTDPPHITAETAARRLARGSPPSEASSSVSQLSAPSLRATCTTHSNTYDVDMVDANLLMEGGVAQTEPESRVPVLDFLEPMAEEESDLEPSIPSECMLPRSGFPRALPAWARPDYNPPLVESWRRPDYQPPTVAGCALPPPKKAPTPPPRRRRTVGLSESTISEALQQLAIKTFGQPPSSGDAGSSTGAGAAESGGPTSPGEPAPSETGSASSMPPLEGEPGDPDLESDQVELQPPPQGGGVAPGSGSGSWSTCSEEDDTTVCC
notes: not shown: Flag tag from vector pRK-7 Flag
B1: the binding result in assay [1] is on record as “binds”.

B2: the binding result in assay [2] and in assay [3] was “binds” throughout.

B3: NS5A of HCV JFH1 in infected Huh7.5.1 cells (other)
chain: SGSWLRDVWDWVCTILTDFKNWLTSKLFPKLPGLPFISCQKGYKGVWAGTGIMTTRCPCGANISGNVRLGSMRITGPKTCMNTWQGTFPINCYTEGQCAPKPPTNYKTAIWRVAASEYAEVTQHGSYSYVTGLTTDNLKIPCQLPSPEFFSWVDGVQIHRFAPTPKPFFRDEVSFCVGLNSYAVGSQLPCEPEPDADVLRSMLTDPPHITAETAARRLARGSPPSEASSSVSQLSAPSLRATCTTHSNTYDVDMVDANLLMEGGVAQTEPESRVPVLDFLEPMAEEESDLEPSIPSECMLPRSGFPRALPAWARPDYNPPLVESWRRPDYQPPTVAGCALPPPKKAPTPPPRRRRTVGLSESTISEALQQLAIKTFGQPPSSGDAGSSTGAGAAESGGPTSPGEPAPSETGSASSMPPLEGEPGDPDLESDQVELQPPPQGGGVAPGSGSGSWSTCSEEDDTTVCC
notes: also called endogenous NS5A
Regarding B3, the binding result in assay [4] was “binds”.

B4: flag-tagged truncated CD2AP 1-107 aa (other)
chain: MVDYIVEYDYDAVHDDELTIRVGEIIRNVKKLQEEGWLEGELNGRRGMFPDNFVKEIKRETEFKDDSLPIKRERHGNVASLVQRISTYGLPAGGIQPHPQTKNIKKK
notes: Contains the first SH3 domain; not shown: Flag tag
Turning to B4, the binding result in assay [5] is recorded as “binds”.

B5: flag-tagged truncated CD2AP 1-330 aa (other)
chain: MVDYIVEYDYDAVHDDELTIRVGEIIRNVKKLQEEGWLEGELNGRRGMFPDNFVKEIKRETEFKDDSLPIKRERHGNVASLVQRISTYGLPAGGIQPHPQTKNIKKKTKKRQCKVLFEYIPQNEDELELKVGDIIDINEEVEEGWWSGTLNNKLGLFPSNFVKELEVTDDGETHEAQDDSETVLAGPTSPIPSLGNVSETASGSVTQPKKIRGIGFGDIFKEGSVKLRTRTSSSETEEKKPEKPLILQSLGPKTQSVEITKTDTEGKIKAKEYCRTLFAYEGTNEDELTFKEGEIIHLISKETGEAGWWRGELNGKEGVFPDNFAVQINE
notes: Contains all three SH3 domains; not shown: Flag tag
For the molecule B5, in assay [5], the binding result is on record as “binds”.

B6: flag-tagged truncated CD2AP 1-268 aa (other)
chain: MVDYIVEYDYDAVHDDELTIRVGEIIRNVKKLQEEGWLEGELNGRRGMFPDNFVKEIKRETEFKDDSLPIKRERHGNVASLVQRISTYGLPAGGIQPHPQTKNIKKKTKKRQCKVLFEYIPQNEDELELKVGDIIDINEEVEEGWWSGTLNNKLGLFPSNFVKELEVTDDGETHEAQDDSETVLAGPTSPIPSLGNVSETASGSVTQPKKIRGIGFGDIFKEGSVKLRTRTSSSETEEKKPEKPLILQSLGPKTQSVEITKTDTEGKI
notes: not shown: Flag tag
For B6, the binding result in assay [5] is listed as “binds”.

Values taken from patent US20190353642A1 (WUHAN INSTITUTE OF VIROLOGY CHINESE ACADEMY OF SCIENCES, published 2019).
